Measurements published in PMC7953435 (Cell host & microbe, 2021).

Target: N-terminal domain of SARS-CoV-2 spike (NTD, residues 1–330) (SARS-CoV-2, UniProt P0DTC2)
Assay: crystal structure

B1: antibody 2–51 Fab (Fab, V domains shown)
VH: QVQLVQSGAEVKKPGASVKVSCKVSGYTLIELSMHWVRQAPGKGLEWMGGFDPEDVETIYAQQFQGRVTMTEDTSTDTAYMELSSLRSEDTAVYYCATGWAYKSTWYFGYWGQGTLVTVSS
VL: QSALTQPPSASGSPGQSVTISCTGTSSDVGGYNYVSWYQQHPGKAPKLMIYEVSKRPSGVPDRFSGSKSGNTASLTVSGLQAEDEADYYCSSYAGSRMGFGGGTKLTVL
- binding result: binds
